Reference: patent US20230312704A1 (SHANGHAI ESCUGEN BIOTECHNOLOGY, published 2023)

T1: mouse CLDN18.2 (mCLDN18.2) (mouse, UniProt P56857 10-264)
T1 construct: Stably expressed on HEK293 cells; the stomach-type isoform is meant; also called mouse mhCLDN18.2; m hCLDN18.2
T1 chain: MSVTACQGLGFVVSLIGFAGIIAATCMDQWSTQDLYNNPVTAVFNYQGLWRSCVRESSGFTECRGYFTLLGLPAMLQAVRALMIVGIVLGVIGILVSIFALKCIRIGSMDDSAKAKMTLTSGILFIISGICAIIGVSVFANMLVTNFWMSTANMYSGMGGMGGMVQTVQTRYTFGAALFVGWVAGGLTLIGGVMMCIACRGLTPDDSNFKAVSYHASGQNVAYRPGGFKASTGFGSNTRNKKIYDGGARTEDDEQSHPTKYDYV


Tests used:
[1] = molecular target: T2, human CLDN18 splice variant 2 (Claudin 18.2, hCLDN18.2) (human); assay: IHC with hybridoma supernatant on FFPE sections of HEK293-hCLDN18.2 cell blocks
T2 construct: The same entry is used for CLDN18.2 in human stomach and gastric cancer FFPE tissue (IHC); also called HEK293-hCLDN18.2; HEK293-CLDN18.2

[2] = molecular target: T1, mouse CLDN18.2 (mCLDN18.2); assay: flow cytometry on HEK293-mCLDN18.2 cells, paraformaldehyde-fixed and non-fixed
[3] = molecular target: T2, human CLDN18 splice variant 2 (Claudin …); assay: flow cytometry on HEK293-hCLDN18.2 cells, paraformaldehyde-fixed and non-fixed
[4] = molecular target: T3, mouse CLDN18.1 (mCLDN18.1) (mouse, UniProt P56857 1-264); assay: flow cytometry on HEK293-mCLDN18.1 cells, paraformaldehyde-fixed and non-fixed
T3 construct: Stably expressed on HEK293 cells; the lung-type isoform is meant; also called HEK293-mCLDN18.1

[5] = molecular target: T2, human CLDN18 splice variant 2 (Claudin …); assay: flow cytometry on HEK293-hCLDN18.2 cells, 3-fold dilutions from 10 µg/mL, 8 points

Binder	binding result [1]	binding result [5]	also measured
5-G17 (mouse hybridoma clone, supernatant) (antibody, V domains shown, Antibody as secreted by the hybridoma; also called subclones 5-G17-30 and 5-G17-6) VH: EVKLVESGGGLVKPGGSLKLSCAASGFTISDYGMAWVRQAPGKGPEWVAFISNLAYSIHYVDTVTGRFTISRENAKNTLYLEMRSLRSEDTAMYYCARMYYGNALDYWGQGTSVTVSS VL: DIVMTQSPSSLTVTTGEKVTMSCKSSQNLLNSGNQKNYLTWYQQKPGQPPKLLIYWASTRESGVPDRFTGSGSGTDFTLTISSVQAEDLAVYYCQNDYSFPLTFGAGTKLELK	binds	–	–
human-mouse chimeric positive control antibody 163E12 (antibody, human IgG1, kappa, V domains shown, Human-mouse chimeric antibody expressed in CHOS cells and purified on Protein A. It was detected with an anti-human Fc secondary antibody; also called home-made positive control (Benchmarker) chimeric antibody 163E12) VH: QIQLVQSGPELKKPGETVKISCKASGYTFTNYGMNWVKQAPGKGLKWMGWINTNTGEPTYAEEFKGRFAFSLETSASTAYLQINNLKNEDTATYFCARLGFGNAMDYWGQGTSVTVSS VL: DIVMTQSPSSLTVTAGEKVTMSCKSSQSLLNSGNQKNYLTWYQQKPGQPPKLLIYWASTRESGVPDRFTGSGSGTDFTLTISSVQAEDLAVYYCQNDYSYPLTFGAGTKLELKR	–	–	binding result [2]: binds; binding result [3]: binds; binding result [4]: no binding
purified recombinant mouse monoclonal antibody 5-G17 (mouse IgG2a, kappa) (antibody, V domains shown, Expressed in HEK293 cells and purified on Protein A; also called recombinant and purified mouse IgG2a type 5-G17) VH: EVKLVESGGGLVKPGGSLKLSCAASGFTISDYGMAWVRQAPGKGPEWVAFISNLAYSIHYVDTVTGRFTISRENAKNTLYLEMRSLRSEDTAMYYCARMYYGNALDYWGQGTSVTVSS VL: DIVMTQSPSSLTVTTGEKVTMSCKSSQNLLNSGNQKNYLTWYQQKPGQPPKLLIYWASTRESGVPDRFTGSGSGTDFTLTISSVQAEDLAVYYCQNDYSFPLTFGAGTKLELKR	–	binds	–
purified recombinant mouse monoclonal antibody 5-I10 (mouse IgG2a, kappa) (antibody, V domains shown, also called recombinant and purified mouse IgG2a type 5-I10) VH: EIQLQQSGAELVKPGASVKISCKAPGYSFTDYNMNWVKQSHGKSLEWIGNINSYYGSTSYNQKFKGKATLTVDRSSSTAYMQLNSLTSEDSAVYYCTNFDRGNSFPYWGHGTLVTVSA VL: DIVMTQSPSSLTVTVGEKVTMTCKSSQSLLNSGNQKNYLTWYQQKPGQSPKLLIYWASTRESGVPERFTGRGSGTDFTLTISSVQAEDLAVYYCQNGYSYPFTFGSGTNLEIKR	–	binds	–
5-I10 (mouse hybridoma clone, supernatant) (antibody, V domains shown, Antibody as secreted by the hybridoma; also called subclones 5-I10-33 and 5-I10-18) VH: EIQLQQSGAELVKPGASVKISCKAPGYSFTDYNMNWVKQSHGKSLEWIGNINSYYGSTSYNQKFKGKATLTVDRSSSTAYMQLNSLTSEDSAVYYCTNFDRGNSFPYWGHGTLVTVSA VL: DIVMTQSPSSLTVTVGEKVTMTCKSSQSLLNSGNQKNYLTWYQQKPGQSPKLLIYWASTRESGVPERFTGRGSGTDFTLTISSVQAEDLAVYYCQNGYSYPFTFGSGTNLEIK	binds	–	–
